Measurements taken from PMC2605707.

Biological target: RDE-4 variant R2C (dsRBM2 and C-terminus) (C. elegans)
Assay: SEC

stoichiometry N: 2
Substance: RDE-4 variant R2C (dsRBM2 and C-terminus) (domain or fragment)
